The results in this text go back to patent US20210261605A1.

Substitutions are numbered along the chain they refer to.

The chains are these.
B1: FcR35d-containing Fc-binding protein (SEQ ID NO: 7) (receptor)
chain: KIEEAMGMRTGDMPKAEVILEPPWNRVLEQDSVTLKCRGAHSPDDDSTQWFHNERLIPSQASSFIIDSASVDDSGEYRCQTSLSTLSDPVQLEVHIGWLLLQAPRWEFVEGEPIHLRCHSWRNTALHKVMFLQNGKVRKYFHHNSDFVIPKATLEDSGSYSCRGLVGRKKVSSGAVDITVTQGGHHHHHH
B2: FcR36i-containing Fc-binding protein (SEQ ID NO: 9) (receptor)
chain: B1 chain with V166I
B3: FcR35c-containing Fc-binding protein (SEQ ID NO: 5) (receptor)
chain: B1 chain with R55S, D72E, D88E, Q91L, K170N, G174E, D177E, Q182P
B4: FcR36a-containing Fc-binding protein (SEQ ID NO: 11) (receptor)
chain: B1 chain with V166A
B5: FcR9_I (SEQ ID NO: 24), Fc-binding protein containing the amino acid substitution Val192Ile (receptor)
chain: KIEEAMGMRTEDLPKAEVILEPQWNRVLEKDSVTLKCRGAYSPEDNSTQWFHNESLISSQASSYLIDAATVDDSGEYRCQTSLSTLSDPVQLEVHIGWLLLQAPRWEFKEGDPIHLRCHSWKNTALHKVTYLQNGKGRKYFHHNSDFYIPKATLKDSGSYSCRGLIGSKNVSSETVNITITQGGHHHHHH
B6: FcR9_F, Fc-binding protein having phenylalanine substituting for valine at position 192 of FcR9 (SEQ ID NO: 20) (receptor)
chain: B5 chain with I166F
B7: FcR9_A (SEQ ID NO: 26), Fc-binding protein containing the amino acid substitution Val192Ala (receptor)
chain: B5 chain with I166A
B8: Fc-binding protein FcR9 (SEQ ID NO: 20) (receptor)
chain: B5 chain with I166V

In the experiment the target is IgG1 (product of Sigma-Aldrich). As to the kind of experiment: SPR (Biacore T100), Fc-binding protein immobilized on CM5 chip, IgG1 in flow. In general terms: In SPR one partner is held on a chip, and binding of the other changes the refractive index at the surface.
In turn, B1 had a Kd of 39 nM, a koff of 0.031 s⁻¹ and an on-rate (kon) of 810000 M⁻¹ s⁻¹.
For B2 the same measures were 43 nM, 0.038 s⁻¹ and 900000 M⁻¹ s⁻¹.
For B3, in that order: 40 nM, 0.022 s⁻¹ and 540000 M⁻¹ s⁻¹.
For B4, in that order: 95 nM, 0.13 s⁻¹ and 1.4e+06 M⁻¹ s⁻¹.
Take B5: the dissociation constant (Kd) stood at 60 nM, the off-rate constant (koff) is 0.012 s⁻¹ and the kon stood at 200000 M⁻¹ s⁻¹.
For B6 the same measures were 3300 nM, 0.3 s⁻¹ and 90000 M⁻¹ s⁻¹.
For B7, in that order: 36 nM, 0.0035 s⁻¹ and 100000 M⁻¹ s⁻¹.
For B8, in that order: 77 nM, 0.031 s⁻¹ and 410000 M⁻¹ s⁻¹.

In general, Kd refers to the equilibrium constant for the complex coming apart. A high value points to weaker binding. The koff is the first-order rate constant of dissociation. Low values mean slow dissociation, high ones fast dissociation. A word on the kon: it is the rate constant with which the complex forms. The low end stands for slower complex formation, the high end for faster complex formation.
